Drawing on PMC2882879 (Biochemistry, 2010), this text covers Kd for two molecules.

One assay concerns the target LRP6 (Homo sapiens) (UniProt O75581). The experiment in a line: solid phase enzyme-linked binding assay. The note with it: cited from earlier work.
For assay [1], the target named is human low-density lipoprotein receptor-related protein-5 on stably transfected ldl-7 (LDLR-deficient CHO) … (human, UniProt O75197 32-1615). The experiment in a line: radioligand binding.

In general, Kd refers to the equilibrium constant for the complex coming apart.

Chain of LRP6 (Homo sapiens) (O75581 20-1370): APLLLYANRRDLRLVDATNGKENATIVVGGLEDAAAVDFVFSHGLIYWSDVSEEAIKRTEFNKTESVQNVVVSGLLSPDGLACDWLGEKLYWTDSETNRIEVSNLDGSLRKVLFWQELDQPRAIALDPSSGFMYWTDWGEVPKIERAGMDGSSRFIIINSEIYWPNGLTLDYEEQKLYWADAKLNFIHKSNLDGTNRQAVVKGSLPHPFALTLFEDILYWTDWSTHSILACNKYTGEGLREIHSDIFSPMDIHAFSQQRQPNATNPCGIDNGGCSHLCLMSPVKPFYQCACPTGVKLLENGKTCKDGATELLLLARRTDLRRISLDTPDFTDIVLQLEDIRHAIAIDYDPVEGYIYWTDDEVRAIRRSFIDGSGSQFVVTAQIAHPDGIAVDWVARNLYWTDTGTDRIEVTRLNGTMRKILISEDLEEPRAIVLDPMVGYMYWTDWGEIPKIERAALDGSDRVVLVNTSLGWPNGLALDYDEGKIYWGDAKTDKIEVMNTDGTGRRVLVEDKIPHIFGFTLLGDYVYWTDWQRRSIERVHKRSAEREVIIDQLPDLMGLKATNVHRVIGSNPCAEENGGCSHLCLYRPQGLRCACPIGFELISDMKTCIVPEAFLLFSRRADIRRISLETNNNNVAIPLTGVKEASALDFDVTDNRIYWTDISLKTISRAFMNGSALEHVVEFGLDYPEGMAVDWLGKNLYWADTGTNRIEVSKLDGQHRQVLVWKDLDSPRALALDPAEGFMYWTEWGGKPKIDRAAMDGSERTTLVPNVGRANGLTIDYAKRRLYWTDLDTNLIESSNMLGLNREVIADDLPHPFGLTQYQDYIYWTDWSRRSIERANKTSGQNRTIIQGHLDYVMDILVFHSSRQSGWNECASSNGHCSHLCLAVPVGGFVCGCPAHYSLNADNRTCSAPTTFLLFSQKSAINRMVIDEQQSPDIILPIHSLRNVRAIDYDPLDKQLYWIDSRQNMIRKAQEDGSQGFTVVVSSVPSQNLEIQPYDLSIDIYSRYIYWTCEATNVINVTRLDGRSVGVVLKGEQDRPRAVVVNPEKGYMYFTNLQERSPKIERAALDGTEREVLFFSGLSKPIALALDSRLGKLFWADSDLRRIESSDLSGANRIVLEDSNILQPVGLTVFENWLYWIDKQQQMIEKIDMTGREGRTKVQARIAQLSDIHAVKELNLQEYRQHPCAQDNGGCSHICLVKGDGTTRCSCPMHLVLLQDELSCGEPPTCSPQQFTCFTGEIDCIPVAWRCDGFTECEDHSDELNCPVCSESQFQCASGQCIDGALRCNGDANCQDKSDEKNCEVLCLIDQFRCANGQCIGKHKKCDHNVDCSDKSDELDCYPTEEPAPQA
Chain of human low-density lipoprotein receptor-related protein-5 on stably transfected ldl-7 (LDLR-deficient CHO) … (O75197 32-1615): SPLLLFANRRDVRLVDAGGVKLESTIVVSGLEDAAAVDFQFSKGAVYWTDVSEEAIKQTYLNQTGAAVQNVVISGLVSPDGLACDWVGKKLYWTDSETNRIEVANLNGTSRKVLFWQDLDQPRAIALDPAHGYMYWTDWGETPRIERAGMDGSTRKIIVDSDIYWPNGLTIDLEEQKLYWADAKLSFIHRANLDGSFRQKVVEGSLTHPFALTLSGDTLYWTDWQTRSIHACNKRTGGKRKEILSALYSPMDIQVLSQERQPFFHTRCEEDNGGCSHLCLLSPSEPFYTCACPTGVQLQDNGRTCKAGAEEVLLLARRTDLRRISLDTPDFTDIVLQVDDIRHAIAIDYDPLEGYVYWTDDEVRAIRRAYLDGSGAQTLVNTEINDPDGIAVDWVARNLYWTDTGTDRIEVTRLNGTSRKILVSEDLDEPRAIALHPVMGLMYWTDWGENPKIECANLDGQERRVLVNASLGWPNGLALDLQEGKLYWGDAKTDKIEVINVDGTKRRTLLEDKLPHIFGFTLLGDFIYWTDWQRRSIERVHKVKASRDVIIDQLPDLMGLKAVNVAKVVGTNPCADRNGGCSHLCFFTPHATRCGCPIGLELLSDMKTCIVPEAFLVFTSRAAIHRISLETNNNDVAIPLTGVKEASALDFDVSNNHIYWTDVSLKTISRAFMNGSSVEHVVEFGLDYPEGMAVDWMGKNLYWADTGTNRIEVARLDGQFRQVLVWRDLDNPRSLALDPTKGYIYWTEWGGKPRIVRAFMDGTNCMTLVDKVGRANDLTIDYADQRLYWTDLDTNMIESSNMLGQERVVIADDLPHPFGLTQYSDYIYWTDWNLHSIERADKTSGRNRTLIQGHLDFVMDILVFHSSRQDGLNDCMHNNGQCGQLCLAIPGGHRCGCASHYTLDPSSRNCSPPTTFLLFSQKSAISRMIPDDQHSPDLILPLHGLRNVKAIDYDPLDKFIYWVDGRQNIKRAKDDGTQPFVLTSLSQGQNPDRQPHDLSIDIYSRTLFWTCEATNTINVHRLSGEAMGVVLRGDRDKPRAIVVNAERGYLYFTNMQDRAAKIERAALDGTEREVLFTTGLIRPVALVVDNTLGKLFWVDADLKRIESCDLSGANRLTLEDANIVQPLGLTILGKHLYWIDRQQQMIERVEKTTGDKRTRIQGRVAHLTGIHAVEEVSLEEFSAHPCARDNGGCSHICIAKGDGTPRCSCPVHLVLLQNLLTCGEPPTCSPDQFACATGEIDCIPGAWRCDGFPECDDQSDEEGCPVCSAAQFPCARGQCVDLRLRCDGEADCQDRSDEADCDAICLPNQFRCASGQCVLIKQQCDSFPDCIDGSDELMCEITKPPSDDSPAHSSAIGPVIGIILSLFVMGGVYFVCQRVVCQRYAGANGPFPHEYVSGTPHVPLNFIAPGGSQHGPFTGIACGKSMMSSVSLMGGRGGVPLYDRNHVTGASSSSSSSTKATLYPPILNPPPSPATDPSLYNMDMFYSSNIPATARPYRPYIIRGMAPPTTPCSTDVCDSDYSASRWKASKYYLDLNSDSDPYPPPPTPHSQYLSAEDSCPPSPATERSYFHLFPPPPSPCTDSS

Take Rspo1 (from UniProt Q2MKA7): the Kd in the assay with LRP6 (Homo sapiens) is 1.2 nM.

B1: recombinant mouse Mesd protein (natural protein, UniProt Q9ERE7 30-224, looked up)
chain: ADTPGEATPPPRKKKDIRDYNDADMARLLEQWEKDDDIEEGDLPEHKRPSAPIDFSKLDPGKPESILKMTKKGKTLMMFVTVSGNPTEKETEEITSLWQGSLFNANYDVQRFIVGSDRAIFMLRDGSYAWEIKDFLVSQDRCAEVTLEGQMYPGKGGGSKEKNKTKPEKAKKKEGDPKPRASKEDNRAGSRREDL
modifications: 125I-iodinated (IODO-GEN method) where used as radioligand; unlabelled where used as competitor
On to B1, for which, in assay [1], the affinity, expressed as Kd, was 3.3 nM.
